Laboratory results reported in article PMC7699296, “Dual-Channel Stopped-Flow Apparatus for Simultaneous Fluorescence, Anisotropy, and FRET Kinetic Data Acquisition for Binary and Ternary Biological Complexes” (Biosensors, 2020).

Legend:
Settings in all cases: both partners purified
[1] = target: T1, full-length Tata Binding Protein from Saccharomyces cerevisiae (Saccharomyces cerevisiae, UniProt P13393 1-240); assay: stopped-flow fluorescence anisotropy kinetics (dual-channel, rF(t)); derived over the range 15 °C to 25 °C from the kon values: van't Hoff plot, and KD estimated with a dissociation rate constant cited from other work
T1 construct: also called yTBP; TBP; source: Escherichia coli, purified
T1 sequence (looked up): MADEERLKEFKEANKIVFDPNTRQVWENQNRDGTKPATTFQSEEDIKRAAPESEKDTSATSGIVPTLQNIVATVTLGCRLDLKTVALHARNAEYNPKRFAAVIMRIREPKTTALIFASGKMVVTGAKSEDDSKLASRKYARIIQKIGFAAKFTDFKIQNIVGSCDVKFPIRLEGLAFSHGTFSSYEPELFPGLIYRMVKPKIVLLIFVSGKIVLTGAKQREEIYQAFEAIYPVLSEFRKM

[2] = target: T1, full-length Tata Binding Protein from …; assay: stopped-flow fluorescence anisotropy kinetics (dual-channel, rF(t)); 15 °C; preformed yTBP (220 nM)-AdMLP31ds*Flint (20 nM) in syringe 1, 850 nM TFIIA in syringe 2 (concentrations after mixing); 25 mM Tris, 100 mM KCl, 5 mM MgCl2, 1 mM CaCl2, 2 mM DTT; biphasic fit, kon from the fast eigenvalue
[3] = target: T1, full-length Tata Binding Protein from …; assay: stopped-flow fluorescence anisotropy kinetics (dual-channel, rF(t)); 25 °C; preformed yTBP (220 nM)-AdMLP31ds*Flint (20 nM) in syringe 1, 850 nM TFIIA in syringe 2 (concentrations after mixing); 25 mM Tris, 100 mM KCl, 5 mM MgCl2, 1 mM CaCl2, 2 mM DTT; biphasic fit, kon from the fast eigenvalue
[4] = target: T1, full-length Tata Binding Protein from …; assay: stopped-flow fluorescence anisotropy kinetics (dual-channel, rF(t)); 17 °C; preformed yTBP (220 nM)-AdMLP31ds*Flint (20 nM) in syringe 1, 850 nM TFIIA in syringe 2 (concentrations after mixing); 25 mM Tris, 100 mM KCl, 5 mM MgCl2, 1 mM CaCl2, 2 mM DTT; biphasic fit, kon from the fast eigenvalue

- Kd [1]: 2.1 to 6.6 nM
- dH [1]: 19.6 ± 1.6 kcal/mol
- kon [2]: 1.45e+06 M⁻¹ s⁻¹
- kon [3]: 4.68e+06 M⁻¹ s⁻¹
- kon [4]: 1.84e+06 M⁻¹ s⁻¹
B1: yeast Transcription Factor II A (complex)
chain 1: MSNAEASRVYEIIVESVVNEVREDFENAGIDEQTLQDLKNIWQKKLTETKVTTFSWDNQFNEGNINGVQNDLNFNLATPGVNSSEFNIKEENTGNEGLILPNINSNNNIPHSGETNINTNTVEATNNSGATLNTNTSGNTNADVTSQPKIEVKPEIELTINNANITTVENIDDESEKKDDEEKEEDVEKTRKEKEQIEQVKLQAKKEKRSALLDTDEVGSELDDSDDDYLISEGEEDGPDENLMLCLYDKVTRTKARWKCSLKDGVVTINRNDYTFQKAQVEAEWV
chain 2: MAVPGYYELYRRSTIGNSLVDALDTLISDGRIEASLAMRVLETFDKVVAETLKDNTQSKLTVKGNLDTYGFCDDVWTFIVKNCQVTVEDSHRDASQNGSGDSQSVISVDKLRIVACNSKKSE
modifications: Construct and limits are not given; the full-length TOA1/TOA2 heterodimer is assumed. Species is inferred from the label yTFIIA and the S. cerevisiae TBP used with it.
